{"source": "patent US20230348573A1", "about": "(KEIO UNIVERSITY, published 2023)", "binders": {"B1": {"name": "Ab354 (antibody, V domains shown)", "VH": "QVQLVQSGAEVKKPGASVTVSCKASGFLFTGYYMHWVRQAPGQGLEWMGWINPNSGASNYTRKFQGRVTMTRDTSISATYMKLSRLTSDDTAVYYCARDLAFSMVRGALDYWGQGTLVTVSS", "VL": "QLVLTQPPSASGSPGQSVTISCTGTSSDVGGYNYVSWYQHHPGKAPKLMIYEVSKRPSGVPDRFSGSKSGNTASLTVSGLQAEDEADYYCNSYAGNNNWVFGTGTKVTVL"}}, "key": {"[1]": {"biological_target": "spike protein of SARS-CoV-2 (Wuhan strain) on pseudovirus (SARS-CoV-2 (Wuhan strain), UniProt P0DTC2 14-1254)", "assay": "cell-based or functional assay"}, "[2]": {"biological_target": "T1, RBD derived from SARS-CoV-2 (Wuhan strain) (SARS-CoV-2 (Wuhan strain), UniProt P0DTC2 319-541)", "T1 construct": "domain: RBD", "assay": "BLI (Octet), RBD of the Wuhan strain"}, "[3]": {"biological_target": "T2, full-length spike protein of SARS-CoV-2 (Wuhan strain) (SARS-CoV-2 (Wuhan strain), UniProt P0DTC2 14-1273)", "T2 construct": "whole, on cells; Expressed in 293T cells", "assay": "ACE2 competition, 293T cells, antibody 4 µg/mL"}, "[4]": {"biological_target": "T2, full-length spike protein of SARS-CoV-2 …", "assay": "ACE2 competition, spike on 293T cells, antibody 4 µg/mL"}, "[5]": {"biological_target": "T1, RBD derived from SARS-CoV-2 (Wuhan …)", "assay": "RBD beads, antibody 1 µg/mL, then labelled ACE2, flow cytometry"}, "[6]": {"biological_target": "T1, RBD derived from SARS-CoV-2 (Wuhan …)", "assay": "RBD beads, antibody 4 µg/mL, then labelled ACE2, flow cytometry"}, "[7]": {"biological_target": "T1, RBD derived from SARS-CoV-2 (Wuhan …)", "assay": "RBD beads, antibody 0.25 µg/mL, then labelled ACE2, flow cytometry"}}, "data": [{"binder": "B1", "values": [{"measurement": "IC50 of pseudovirus infection (luciferase)", "setting": "[1]", "result": 0.0559, "unit": "µg/mL"}, {"measurement": "Kd", "setting": "[2]", "result": 72.6, "unit": "pM"}, {"measurement": "ACE2 binding (no antibody = 100)", "setting": "[3]", "result": 0.3}, {"measurement": "binding amount (%) of ACE2 protein", "setting": "[4]", "result": 0.3, "unit": "%"}, {"measurement": "fluorescence of ACE2 protein", "setting": "[5]", "result": 64.8}, {"measurement": "fluorescence of ACE2 protein", "setting": "[6]", "result": 42.9}, {"measurement": "fluorescence of ACE2 protein", "setting": "[7]", "result": 409}]}]}
